What follows are sequences tested on K4 kissing-loop RNA reporter (assay: apparent KD of K4 kissing-loop reporter; higher = weaker reporter binding). Conditions: Eterna round: R107; input ligand: theophylline 20 uM.
Method: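 RNA-MaP round R107: designed RNA switches with theophylline, tryptophan, arginine or FMN aptamers are transcribed on-chip within common flanks. They are titrated with a labelled K4 kissing-loop RNA reporter in RNA-MaP buffer (100 mM Tris pH 7.5, 80 mM KCl, 4 mM MgCl2), without ligand or with the indicated ligand. Median apparent KD per design.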
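Also: bound reporter read as fluorescence of individual clusters on recovered sequencing chips by microscopy, with normalized cluster intensities fitted with a binding model.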

Sequence	apparent KD of K4 kissing-loop reporter [µM]
AGUCUCAAAAGAGGCAGCACUCACGAGGACAAGGAUAUCAUCUCAAUGAGAAGGUGUCCUCGUCCCUAGUGAUGUUAGGGAGUGC [Omei KL FMN A SS E v6]	0.682
ACCUGUAGCAGAAGGAGCGACAGUUAUUCUGAUAGAACUCUGAGUGAUGUUCAGAACAACUGUCAGGUAGGUCGCUGAUACAGGU [Arg B Ex t8a]	0.512
AUAUUUAUUUAGUCACUUUUCAUAUUAUGUCAGGAUAUCGUAUUUUCGAGAAGGGACUCAUGCUAGUGAUGUUAGCUAUUUCUCA [JR_Nu3_ExcFMNA_Sub022]	0.162
UGGAUAUAGUGAUGUUAUAUAGAGAGUGAUACCAGUUUAGAGAAGAACCCUUGGCAGCAUAGAGAAGUAUCAUUAGAGAAGAAUG [ExTheophyl.Ap]	0.24
GGUCCGGGCUCGGCCGCCACUCCCUCCUGCCGUAAGGUGGGAUACCGAGUGAUGUUCGGUUGGAGGAGGACCGGGAGCCCGGACC [#2 Exclusion - Tryptophan B Attempt #15 (HarryS)]	0.105
GGCAUGGUGACGCGGCUGCCAUGCACUUGGGAGGAUAUGUUUCGUGACAGAAGGCCCAGUGAUGUUGGGUCUGUUCAAAAGGACU [Lerere]	0.147
ACAGGAUCGAAGAUCCUGAGCAGUCAGGUCCGAGGACCGGUACGGCCGCCACUCGGAGUGAUGUUCCGAAGACUGCAAAAUAAAA [#SwitchBubble 4]	0.968
UGACUGGACUGAAGGAGCGCUAAAACUCCUAGUGAUGUUGGGAAAUAAGAGACAAAGUCUCAGCAGGUAGGUCGCAGUCUAGUCU [ArgBS 24 #SwitchBubble #StaticStem]	0.657
CUUUGAACAUGAGUGAUGUUCAUGUCCGAAGGAGCGUGCGAAAGCACAGGUAGGUCGCGGACGUGAGUGAUGUUCAUGUGAGCGA [KL-XArg-A11 #analogue]	0.167
UACAAACGUAGUGAUGUUACGUACUCUGAUACCAGACAAGUGUAAGUCCCUUGGCAGCAGUCAUUUUGCUUAUUAUUUUCUCAAA [JR_ExcTheophyA_Sub019]	0.0864
GUGGGCAUAGCAGGAUAUCCAUAUUAACAGGAGUCCUCGCCAGUGAUGUUGGAAAGGUACCGGAGUGGAGAAGGGCUCCUACGUA [Anbiratien]	0.757

Same assay, conditions: Eterna round: R107; input ligand: tryptophan 2.4 mM

Sequence	apparent KD of K4 kissing-loop reporter [µM]
UUUUUCGCGUUUGAUACCAGCAGAGUUGUUCGUGUCUGGAACAUGAGUGAUGUUCAUGUCUGCCCUUGGCAGCAAACGGGAGAAG [KL-XTheo-B13]	0.124
GGGUGGCAGGCGGCCGCCACUCUGAGCACCCACUGAGUGAUGUUCGUGGCGUAAGCCUGUUCGUAGAGGACCGGGUUUGUUGUUC [Exclusion Tryptophan B GF 15]	0.23
GGUGACAACCAGAGGUGAUGUAUAGAAUAGCGAGGACCGGUACGGCCGCCACUCGUGAAGAGAAAGGAGUGAUGUUCCGUAAUGG [Kazoo C5]	0.166
GCAGUGAUGUUGCGCAGGUACAGUGGAGUGCGAGGACCGGUACGGCCGCCACUCGUACAGAACUAGCUAAUAUAUGGAUAGGUGA [VIII]	0.28
UGUUAUGGGUGAGGAUAUGCUGACGAUGCGGGUGCGAGUGAUGUUGGUGUGGCUGGUGUCGUUUGUGCAGAAGGCACGCUCGUGG [BDazzled]	0.811
UGUACCGAGUCAGGAUAUCAUAAUAAUGCAGUGAUGUUGCAAUAACGACUGACAAAGUCGGUCGAUUGAGAAGGGACUUGGUACU [FmnBS 6 #SwitchBubble #StaticStem]	0.126
GCGAUUCAGUGAUGUUGGAAAUACAGGGAUACCAGCCGAAAAUAAGGCCCUUGGCAGCUUAAUAGGAAAGAACUAAGAAAGACGC [Theophylline A Same State; Euphoria Solution 3]	0.46
UUAGAGAUCUCAGGAUAUGAGUGAUGUUGGUAUCAAGAUCUGAGAUAGAAUUCUAUCUCAGAUCAAUCAGAAGGGAGAUCUCAUU [AK2.1 Exc FMN B]	0.55
UGAUAGGACAGAAGGAGCGGAAGUGAUGUUUCCAAAAGGUAAAGGUGUCAAAAGACACCCUUCCAGGUAGGUCGCUGUCCUAUCU [ArgBX 12 #Palindromic #SwitchBubble #StaticStem]	0.103
GCAUAUACGAGAAGGAGCGUGCAUGACGAAUUAAUCAUCGACCUUAGUGAUGUUAAGGACGCACAGGUAGGUCGCUCGUGUAUGC [#04 K4 Arginine B Same State]	0.354
GUUACGCAUGGAAGGAGCGCUCUCCGGCUUAAUAACACAGUGAUGUUGUGAAUUUGCCGAAAGCAGGUAGGUCGCCAUGUGUAAC [Ex Arginine B K4 10]	0.413
UCCUGCAAUCGACCACGAAAGUGGAUUGAUACCAGAGUCGAAAGACUCCCUUGGCAGCGAGUGAUGUUCGAAGCAGGUAAAUAAA	0.426
UAACGGCCCAGUGAUGUUGGGUGGAGGCGGCGAGGACCGGUACGGCCGCCACUCGGCGCACAGGCGGAGUGAUGUUGCGCGUAAA [Same State Tryptophan A GF 13]	0.215
AAAUAAAGCAGUCAUCCAGUGAUGUUGGAAGGAGCGUGCGAAAGCACAGGUAGGUCGCCAAAACCUAAUAAUGGCUGCUAAAUAA [#SwitchBubble 2 #K4Early]	0.141
GUAUCGCUAGGAGGAUAUUUCAAAUCGCCAAUAAAUGGUGAUACGGAGUGAUGUUCCGAUUUACGGAAAGAAGGCCUAGUGAUAC [FMN B 6]	0.268
UGUCAUUGGUCUGAUACCAGCUGAUCGGAAACGAUCUUGCUGGAGUGAUGUUCCAAGUAAAGCCCUUGGCAGCAGACCGAUGACU [TheoBS 9 #SwitchBubble #StaticStem]	0.144
GGUAGCAUGGCGGCCGCCACUUACUUCAAUAGGAGUGAUGUUCCUAUUACUAGUAGUGAAAUAAUAAGGACCGGGCCAUGCUACC	0.0968
AAACAUCACUACUUCUUCGUCCUAGAAGACUAGGAUAUCAGGAAACUGAGAAGGAGUCUCUGCAGUGAUGUUGCAGCUAGGACGA [[K]'-[F2]'-[F1]'-[F1]-[F2]-[K1]-[K2]-[F]''_Design2]	0.28
AAGCAGUCCCUUGUAGUCAUCGAAGAUGAACGAGGACCGGUACGGCCGCCACUCGGAGUGAUGUUCCGAAGGCUGCAAAAUAAAA [MatMod 19 - Jieux - Exclusion - Tryptophan A]	0.31
AAUUUAUAUUUAUUCUUUAAAUGUUCAGAAGGAGCGUGAAUUAUCACAGGUAGGUCGCUGGGCUAGUGAUGUUGGCUAUAUACUA [whbob_Ex_Arginine_A_2t125]	0.124
GGACGACAGGCGGCCGCCACUCAAAGCAGCCAGCGAGUGAUGUUCGUGGCGGAGUGAUGUUCCUAGAGGACCGGGUCUGCAGUUC [Same State Tryptophan B GF 18]	0.362
UUCAUCGUGGUUCGCGGGUGGUAUGAAAAGCGAGGACCGGUACGGCCGCCACUCGGUUCCGCUUGUUGAGUGAUGUUCAAUAUUU	0.229

Sequence	apparent KD of K4 kissing-loop reporter [µM]
AACUGUCAAGGACAACAUUACUGAGGUGAUACCAGCAUCGAAAGAUGCCCUUGGCAGCACUGACUUGCAGUGAUGUUGCAAGUAA [BrourdMod 8 - Jieux - Exclusion - Theophylline A]	0.189
UUAACCAACAGCGAUACCAGCGUGGAGUGAUGUUCCGAGGAUCGGAGUGAUGUUCCGAAGCGCCCUUGGCAGCGCAGAAGCGCCA [Exclusion Theophylline B GF9]	0.134
AGUGGACGUGUCCGGAGUGAUGUUCAGGAUACCAGACACGAAAGUGUCCCUUGGCAGCCGGAGUGAUGUUCCGGCGUUCACUAAA [Omei KL Theo A Exc B v4]	0.321
GAUAUAGAGGCGGCCGCCACUAGUGAUGUUAGUGAUGUUAGAUAGAGAAUAGAACAGAGGUGGGAUAGGACCGGGCCAGAUAGAG [whbob_SS_Tryp_B_w34]	0.076
GGGAGUAGUGCGGCCGCCACUGAGAAAGAAGAAGAUUGUAGUGAUGUUAUGGAGGAAAGGAAGAACAGGACCGGGCAUUAGAUUU [SSTRyptB.I]	0.684
GGAUAGGACACAGGAUAUGGUAGUGAUGUUACCAAACUGGUUAAACAUGUCAGAAAACUGGCAUGACCAGAAGGGUGUCCUAUCG [FmnBX 27 C11+G75]	0.0638
AUUGUCGGAGUCUGUGCUGACUGACGAGCAAAGGAUAUGUUAUUAAACAGAAGGUUGUGCUGCUUAAGUGAUGUUUUUGGAGCUA [theeternabot_sameState_KL_FMN_A_26]	0.216
CGAUUCAUGGCGGCCGCCACUCGCGAAGCUCCCGUUACGAUGUCCGCAACAGUGAUGUUGUUGCCGAGGACCGGGCCGAGAUCCA [theeternabot_exclusion_KL_Trp_B_31]	0.218
GGUAGCUAGGUAGGAUAUAGCUAGUGGAGUGAUGUUCCACGAUACACGAGUGAUGUUCGUACCCUGCUAGAAGGGCCUAGCUACC	0.161
GGUAGCAUGGCGGCCGCCACUCAUCGCCUCCCAUCGUCGGGAAGAAUAAGUGUAGUGAUGUUACAGAGGACCGGGCCAUGCUACC	0.268
AGUCUCAAAAGAGGCAGCACUCACGAGGACAAGGAUAUCAUCUCAAUGAGAAGGUGUCCUCGUCCCUAGUGAUGUUAGGGAGUGC [Omei KL FMN A SS E v6]	0.437
ACCUGUAGCAGAAGGAGCGACAGUUAUUCUGAUAGAACUCUGAGUGAUGUUCAGAACAACUGUCAGGUAGGUCGCUGAUACAGGU [Arg B Ex t8a]	0.583
AUAUUUAUUUAGUCACUUUUCAUAUUAUGUCAGGAUAUCGUAUUUUCGAGAAGGGACUCAUGCUAGUGAUGUUAGCUAUUUCUCA [JR_Nu3_ExcFMNA_Sub022]	0.111
UGGAUAUAGUGAUGUUAUAUAGAGAGUGAUACCAGUUUAGAGAAGAACCCUUGGCAGCAUAGAGAAGUAUCAUUAGAGAAGAAUG [ExTheophyl.Ap]	0.18
GGUCCGGGCUCGGCCGCCACUCCCUCCUGCCGUAAGGUGGGAUACCGAGUGAUGUUCGGUUGGAGGAGGACCGGGAGCCCGGACC [#2 Exclusion - Tryptophan B Attempt #15 (HarryS)]	0.107
GGCAUGGUGACGCGGCUGCCAUGCACUUGGGAGGAUAUGUUUCGUGACAGAAGGCCCAGUGAUGUUGGGUCUGUUCAAAAGGACU [Lerere]	0.119
ACAGGAUCGAAGAUCCUGAGCAGUCAGGUCCGAGGACCGGUACGGCCGCCACUCGGAGUGAUGUUCCGAAGACUGCAAAAUAAAA [#SwitchBubble 4]	0.338
UGACUGGACUGAAGGAGCGCUAAAACUCCUAGUGAUGUUGGGAAAUAAGAGACAAAGUCUCAGCAGGUAGGUCGCAGUCUAGUCU [ArgBS 24 #SwitchBubble #StaticStem]	0.526
CUUUGAACAUGAGUGAUGUUCAUGUCCGAAGGAGCGUGCGAAAGCACAGGUAGGUCGCGGACGUGAGUGAUGUUCAUGUGAGCGA [KL-XArg-A11 #analogue]	0.154
UACAAACGUAGUGAUGUUACGUACUCUGAUACCAGACAAGUGUAAGUCCCUUGGCAGCAGUCAUUUUGCUUAUUAUUUUCUCAAA [JR_ExcTheophyA_Sub019]	0.0681
GUGGGCAUAGCAGGAUAUCCAUAUUAACAGGAGUCCUCGCCAGUGAUGUUGGAAAGGUACCGGAGUGGAGAAGGGCUCCUACGUA [Anbiratien]	0.515
